Assay results from paper PMC12344693, “Human Milk Oligosaccharides Multivalently Presented on Defined Synthetic Neo-Glycoproteins Are Nanomolar Ligands of Tandem-Repeat Galectins” (Biomacromolecules, 2025).
Where two headings read alike, the source gives them in different places.

How the values were obtained:
Gal-9C [1] = target: T1, Gal-9C (Homo sapiens, UniProt O00182, A222P); design: method as in ref 19 (a number printed in a supplementary file, which may have a reference list of its own: not looked up in the article's list); conditions: direct ELISA; His-tagged Gal-9C; read-out: KD for ASF, His-tag; cited from earlier work
T1 construct: Tandem-repeat galectins consist of an N-terminal and a C-terminal carbohydrate recognition domain (CRD) interconnected with a peptide linker; His-tag; made in house; host or cells: E. coli
T1 sequence (O00182 220-355 A222P): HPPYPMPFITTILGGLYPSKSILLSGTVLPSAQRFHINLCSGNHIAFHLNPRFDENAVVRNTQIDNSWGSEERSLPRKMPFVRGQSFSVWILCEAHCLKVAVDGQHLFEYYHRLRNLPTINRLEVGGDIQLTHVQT

Gal-9 [2] = target: T2, Gal-9 (Homo sapiens, UniProt O00182, A222P/DEL149-219); design: method as in ref 19 (a number printed in a supplementary file, which may have a reference list of its own: not looked up in the article's list); conditions: direct ELISA; His-tagged Gal-9; read-out: KD for ASF, His-tag; cited from earlier work
T2 construct: Full-length recombinant human galectins (Gal-1, Gal-3, Gal-4, Gal-8, and Gal-9) for ELISA assays; made in house; host or cells: E. coli Rosetta 2(DE3)pLysS
T2 sequence (O00182 with tags, fused parts or gaps DEL149-219/A222P): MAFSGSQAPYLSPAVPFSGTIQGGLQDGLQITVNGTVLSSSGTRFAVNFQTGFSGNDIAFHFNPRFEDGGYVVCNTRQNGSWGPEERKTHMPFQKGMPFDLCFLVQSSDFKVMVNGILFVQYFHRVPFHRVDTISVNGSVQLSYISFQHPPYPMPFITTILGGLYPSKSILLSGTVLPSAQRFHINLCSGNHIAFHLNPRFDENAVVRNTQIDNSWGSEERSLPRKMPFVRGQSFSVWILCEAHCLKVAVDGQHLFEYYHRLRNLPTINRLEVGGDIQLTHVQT

Gal-8C [3] = target: T3, Gal-8C (Homo sapiens, UniProt O00214); design: method as in ref 19 (a number printed in a supplementary file, which may have a reference list of its own: not looked up in the article's list); conditions: direct ELISA; His-tagged Gal-8C; read-out: KD for ASF, His-tag; cited from earlier work
T3 construct: Tandem-repeat galectins consist of an N-terminal and a C-terminal carbohydrate recognition domain (CRD) interconnected with a peptide linker; His-tag; made in house; host or cells: E. coli
T3 sequence (O00214 187-317 limits assumed): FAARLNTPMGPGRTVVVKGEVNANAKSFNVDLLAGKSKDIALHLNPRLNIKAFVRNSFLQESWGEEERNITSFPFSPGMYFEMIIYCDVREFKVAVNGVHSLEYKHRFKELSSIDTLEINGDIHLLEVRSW

Gal-4C [4] = target: T4, Gal-4C (Homo sapiens, UniProt P56470); design: method as in ref 11 (a number printed in a supplementary file, which may have a reference list of its own: not looked up in the article's list); conditions: direct ELISA; His-tagged Gal-4C; read-out: KD for ASF, His-tag; cited from earlier work
T4 construct: Tandem-repeat galectins consist of an N-terminal and a C-terminal carbohydrate recognition domain (CRD) interconnected with a peptide linker; His-tag; made in house; host or cells: E. coli
T4 sequence (P56470 194-323 limits assumed): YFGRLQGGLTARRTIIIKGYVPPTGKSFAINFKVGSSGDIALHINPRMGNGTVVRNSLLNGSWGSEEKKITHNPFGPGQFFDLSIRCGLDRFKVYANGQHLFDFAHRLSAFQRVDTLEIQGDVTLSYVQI

Gal-8 [5] = target: T5, Gal-8 (Homo sapiens, UniProt O00214); design: method as in ref 19 (a number printed in a supplementary file, which may have a reference list of its own: not looked up in the article's list); conditions: direct ELISA; His-tagged Gal-8; read-out: KD for ASF, His-tag; cited from earlier work
T5 construct: Full-length recombinant human galectins (Gal-1, Gal-3, Gal-4, Gal-8, and Gal-9) for ELISA assays; made in house; host or cells: E. coli Rosetta 2(DE3)pLysS
T5 sequence (O00214 1-317): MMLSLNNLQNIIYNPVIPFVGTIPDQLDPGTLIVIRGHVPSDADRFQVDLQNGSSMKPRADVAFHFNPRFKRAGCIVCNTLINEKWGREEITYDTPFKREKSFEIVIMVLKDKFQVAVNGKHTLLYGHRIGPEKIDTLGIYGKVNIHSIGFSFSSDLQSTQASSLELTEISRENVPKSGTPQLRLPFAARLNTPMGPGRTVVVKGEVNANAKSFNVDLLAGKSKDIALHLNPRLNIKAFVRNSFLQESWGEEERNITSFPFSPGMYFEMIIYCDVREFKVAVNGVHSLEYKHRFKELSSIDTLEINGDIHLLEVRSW

Gal-4 [6] = target: T6, Gal-4 (Homo sapiens, UniProt P56470); design: method as in ref 11 (a number printed in a supplementary file, which may have a reference list of its own: not looked up in the article's list); conditions: direct ELISA; His-tagged Gal-4; read-out: KD for ASF, His-tag; cited from earlier work
T6 construct: Full-length recombinant human galectins (Gal-1, Gal-3, Gal-4, Gal-8, and Gal-9) for ELISA assays; made in house; host or cells: E. coli Rosetta 2(DE3)pLysS
T6 sequence (P56470 1-323): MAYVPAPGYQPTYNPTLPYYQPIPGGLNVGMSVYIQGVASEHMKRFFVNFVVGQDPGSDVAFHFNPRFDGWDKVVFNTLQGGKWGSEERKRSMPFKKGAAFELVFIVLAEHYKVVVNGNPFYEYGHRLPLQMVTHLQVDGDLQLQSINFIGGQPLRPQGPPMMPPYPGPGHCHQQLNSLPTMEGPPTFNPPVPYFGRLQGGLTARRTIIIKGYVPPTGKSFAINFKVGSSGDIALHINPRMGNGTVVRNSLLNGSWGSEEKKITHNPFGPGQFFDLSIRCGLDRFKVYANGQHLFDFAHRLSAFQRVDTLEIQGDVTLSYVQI

Gal-4C [7] = target: T4, Gal-4C; assay: direct ELISA, galectin binding to immobilized asialofetuin; conditions: AVI-tagged Gal-4C, read-out: KD for ASF, AVI-tag
Protocol: (§1) detailed in the main text.
(§2) respective galectin in EPBS (50 μL/well).

Gal-9N [8] = target: T7, Gal-9N (Homo sapiens, UniProt O00182, DELINS149-222HPP); assay: as above; conditions: AVI-tagged Gal-9N, read-out: KD for ASF, AVI-tag
T7 construct: Tandem-repeat galectins consist of an N-terminal and a C-terminal carbohydrate recognition domain (CRD) interconnected with a peptide linker; His-tag; made in house; host or cells: E. coli
T7 sequence (O00182 with tags, fused parts or gaps DELINS149-222HPP): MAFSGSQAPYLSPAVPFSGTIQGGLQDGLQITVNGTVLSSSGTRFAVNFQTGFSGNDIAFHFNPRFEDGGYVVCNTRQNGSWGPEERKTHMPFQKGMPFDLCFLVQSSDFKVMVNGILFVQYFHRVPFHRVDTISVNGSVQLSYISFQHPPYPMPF
Protocol: as §1, §2

Gal-9C [9] = target: T1, Gal-9C; assay: as above; conditions: AVI-tagged Gal-9C, read-out: KD for ASF, AVI-tag
Protocol: as §1, §2

Gal-4 [10] = target: T6, Gal-4; assay: as above; conditions: AVI-tagged Gal-4, read-out: KD for ASF, AVI-tag
Protocol: as §1, §2

Gal-4N [11] = target: T8, Gal-4N (Homo sapiens, UniProt P56470); assay: as above; conditions: AVI-tagged Gal-4N, read-out: KD for ASF, AVI-tag
T8 construct: Tandem-repeat galectins consist of an N-terminal and a C-terminal carbohydrate recognition domain (CRD) interconnected with a peptide linker; His-tag; made in house; host or cells: E. coli
T8 sequence (P56470 19-150 limits assumed): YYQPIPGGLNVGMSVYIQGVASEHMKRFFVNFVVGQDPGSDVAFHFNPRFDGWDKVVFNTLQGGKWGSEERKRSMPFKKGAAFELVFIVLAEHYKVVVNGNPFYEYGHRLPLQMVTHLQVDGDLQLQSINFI
Protocol: as §1, §2

Gal-8N [12] = target: T9, Gal-8N (Homo sapiens, UniProt O00214); assay: as above; conditions: AVI-tagged Gal-8N, read-out: KD for ASF, AVI-tag
T9 construct: Tandem-repeat galectins consist of an N-terminal and a C-terminal carbohydrate recognition domain (CRD) interconnected with a peptide linker; His-tag; made in house; host or cells: E. coli
T9 sequence (O00214 19-152 limits assumed): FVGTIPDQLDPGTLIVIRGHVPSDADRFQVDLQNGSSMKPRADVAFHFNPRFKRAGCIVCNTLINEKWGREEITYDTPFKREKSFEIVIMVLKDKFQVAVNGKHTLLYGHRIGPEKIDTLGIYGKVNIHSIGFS
Protocol: as §1, §2

Gal-8C [13] = target: T3, Gal-8C; assay: as above; conditions: AVI-tagged Gal-8C, read-out: KD for ASF, AVI-tag
Protocol: as §1, §2

Gal-8 [14] = target: T5, Gal-8; assay: as above; conditions: AVI-tagged Gal-8, read-out: KD for ASF, AVI-tag
Protocol: as §1, §2

Gal-9 [15] = target: T2, Gal-9; assay: as above; conditions: AVI-tagged Gal-9, read-out: KD for ASF, AVI-tag
Protocol: as §1, §2

Gal-4N [16] = target: T8, Gal-4N; design: method as in ref 11 (a number printed in a supplementary file, which may have a reference list of its own: not looked up in the article's list); conditions: direct ELISA; His-tagged Gal-4N; read-out: KD for ASF, His-tag; cited from earlier work
Gal-9N [17] = target: T7, Gal-9N; design: method as in ref 19 (a number printed in a supplementary file, which may have a reference list of its own: not looked up in the article's list); conditions: direct ELISA; His-tagged Gal-9N; read-out: KD for ASF, His-tag; cited from earlier work
Gal-8N [18] = target: T9, Gal-8N; design: method as in ref 19 (a number printed in a supplementary file, which may have a reference list of its own: not looked up in the article's list); conditions: direct ELISA; His-tagged Gal-8N; read-out: KD for ASF, His-tag; cited from earlier work

ASF: asialofetuin, glycoprotein immobilized on ELISA plates as galectin ligand
Kd (Gal-9C [1]): 3.6 ± 0.5 µM | Kd (Gal-9 [2]): 0.15 ± 0.04 µM | Kd (Gal-8C [3]): 9.4 ± 0.4 µM | Kd (Gal-4C [4]): 19 ± 2 µM | Kd (Gal-8 [5]): 0.14 ± 0.06 µM | Kd (Gal-4 [6]): 3.3 ± 1.1 µM | Kd (Gal-4C [7]): 6.5 ± 1.2 µM | Kd (Gal-9N [8]): 11 ± 4 µM | Kd (Gal-9C [9]): 4.9 ± 0.4 µM | Kd (Gal-4 [10]): 2.3 ± 0.8 µM | Kd (Gal-4N [11]): 17 ± 2 µM | Kd (Gal-8N [12]): 4.6 ± 1.3 µM | Kd (Gal-8C [13]): 11 ± 2 µM | Kd (Gal-8 [14]): 0.32 ± 0.13 µM | Kd (Gal-9 [15]): 0.18 ± 0.05 µM | Kd (Gal-4N [16]): 38 ± 3 µM | Kd (Gal-9N [17]): 25 ± 6 µM | Kd (Gal-8N [18]): 2.3 ± 0.5 µM
